Results as given in US20160083481A1 (INSERM INSTITUT NATIONAL DE LA SANT ET DE LA RECHERCHE M …, published 2016).

Tests used:
[1] = target: T1, Purified glycophorin A (human, from red cell membranes) (human, UniProt P02724 20-150); assay: SPR, Biacore X100, purified GPA amine-coupled on a CM5 chip (400 RU), IH4 as analyte, 1:1 Langmuir fit
T1 construct: mature; also called GPA; Human Glycophorin A
T1 sequence (looked up): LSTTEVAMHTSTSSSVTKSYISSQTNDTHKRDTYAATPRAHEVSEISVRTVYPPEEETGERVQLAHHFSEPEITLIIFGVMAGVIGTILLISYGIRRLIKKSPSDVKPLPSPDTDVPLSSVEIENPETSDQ
Protocol: SPR recordings obtained in a Biacore X100 apparatus.
SPR analysis of VHH interactions used a Biacore X100 apparatus (GE Healthcare). Purified GPA was immobilized on a CM5 chip in the Fc2 channel to a level of 400 Resonance units using amine coupling chemistry as recommended by the manufacturer. Reference channel Fc1 was simply activated and deactivated through ethanolamine. 6 different concentrations of analyte were injected onto the chip for 180 seconds, and dissociation let to proceed for 600 seconds. Data were analyzed using BIA Evaluation software associated to the apparatus.
Data can be easily fitted using 1:1 Langmuir fit.

[2] = target: T2, Glycophorin B in the crude glycophorins mixture (human, UniProt P06028 20-91); assay: western blot of the crude glycophorins mixture, PVDF, with and without NaOH beta-elimination
T2 construct: mature; also called GPB

B1: IH4 (VHH)
VHH: QVQLQESGGGSVQAGGSLRLSCVASGYTDSTYCVGWFRQAPGKEREGVARINTISGRPWYADSVKGRFTISQDNSKNTVFLQMNSLKPEDTAIYYCTLTTANSRGFCSGGYNYKGQGQVTVS
notes: also called VHH IH4; autonomous IH4; not shown: A polyhistidine tail is also present: C-terminal after the HA tag (pHEN6cPm)
B1 showed a Kd [1] of 33.7 nM, a koff [1] of 0.019 s⁻¹ and a kon [1] of 573000 M⁻¹ s⁻¹. B1: no binding [2].
